This passage reports binding signal results from article PMC7132122.

In data set [1] the target is DHX15ΔN;NKRF G-patch V582G (Homo sapiens;Homo sapiens, UniProt O43143;O15226 113-795;541-603, |V582G). Description: fluorescence polarization. For orientation: Fluorescence polarisation rises when a labelled molecule tumbles more slowly, as on binding a larger partner.
A further data set addresses DHX15ΔN;NKRF G-patch wt (Homo sapiens;Homo sapiens, UniProt O43143;O15226 113-795;541-603, |). Description: fluorescence polarization.

Chain of DHX15ΔN;NKRF G-patch V582G (O43143 113-795, chain 1 of 2): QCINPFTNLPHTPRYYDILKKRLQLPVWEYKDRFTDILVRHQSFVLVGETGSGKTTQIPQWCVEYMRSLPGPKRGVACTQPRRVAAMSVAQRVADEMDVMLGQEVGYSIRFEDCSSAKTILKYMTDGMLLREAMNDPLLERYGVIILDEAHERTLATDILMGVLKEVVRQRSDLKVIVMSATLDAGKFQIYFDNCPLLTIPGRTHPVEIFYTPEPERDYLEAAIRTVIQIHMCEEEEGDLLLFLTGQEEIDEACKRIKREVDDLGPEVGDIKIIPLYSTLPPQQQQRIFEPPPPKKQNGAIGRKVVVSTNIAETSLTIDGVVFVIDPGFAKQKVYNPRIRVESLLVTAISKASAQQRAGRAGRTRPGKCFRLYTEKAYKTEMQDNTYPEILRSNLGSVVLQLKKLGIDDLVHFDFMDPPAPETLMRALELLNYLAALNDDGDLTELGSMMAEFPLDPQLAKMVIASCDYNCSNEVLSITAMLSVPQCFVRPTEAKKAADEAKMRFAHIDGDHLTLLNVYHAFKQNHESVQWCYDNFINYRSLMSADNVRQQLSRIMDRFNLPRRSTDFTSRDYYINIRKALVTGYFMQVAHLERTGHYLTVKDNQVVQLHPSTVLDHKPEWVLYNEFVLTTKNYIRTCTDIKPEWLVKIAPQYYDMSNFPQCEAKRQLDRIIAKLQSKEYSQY
Chain of DHX15ΔN;NKRF G-patch V582G (O15226 541-603 V582G, chain 2 of 2): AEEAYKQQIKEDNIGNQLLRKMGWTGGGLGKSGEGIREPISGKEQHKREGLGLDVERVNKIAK
Chain of DHX15ΔN;NKRF G-patch wt (O43143 113-795, stated change not applied, chain 1 of 2): as the sequence (O43143 113-795, chain 1 of 2) above
Chain of DHX15ΔN;NKRF G-patch wt (O15226 541-603, stated change not applied, chain 2 of 2): as the sequence (O15226 541-603 V582G, chain 2 of 2) above, with G42V counted along it

As for UUUUUUUUUUUU (ssRNA) [FAM-U12 RNA], the binding signal is 1.2 fold increase of affinity in data set [1] and ~1 fold of Kd without nucleotide in the data set with DHX15ΔN;NKRF G-patch wt.
